# Measured values as given in patent publication US12031137B2, “Compositions comprising SASP modulators and senescence attenuators and uses thereof for modulating cellular senescence” (RSEM, LIMITED PARTNERSHIP, priority 2016, dated 2024).
# B1: Trap Q: NRP1 trap a1a2-b1b2, aa about 22-583, Y297A; SEQ ID NOs 79/80 (protein)
# chain: FRNDKCGDTIKIESPGYLTSPGYPHSYHPSEKCEWLIQAPDPYQRIMINFNPHFDLEDRDCKYDYVEVFDGENENGHFRGKFCGKIAPPPVVSSGPFLFIKFVSDYETHGAGFSIRYELFKRGPECSQNYTTPSGVIKSPGFPEKYPNSLECTYIVFAPKMSEIILEFESFDLEPDSNPPGGMFCRYDRLEIWDGFPDVGPHIGRYCGQKTPGRIRSSSGILSMVFYTDSAIAKEGFSANYSVLQSSVSEDFKCMEALGMESGEIHSDQITASSQASTNWSAERSRLNYPENGWTPGEDSYREWIQVDLGLLRFVTAVGTQGAISKETKKKYYVKTYKIDVSSNGEDWITIKEGNKPVLFQGNTNPTDVVVAVFPKPLITRFVRIKPATWETGISMRFEVYGCKITDYPCSGMLGMVSGLISDSQITSSNQGDRNWMPENIRLVTSRSGWALPPAPHSYINEWLQIDLGEEKIVRGIIIQGGKHRENKVFMRKFKIGYSNNGSDWKMIMDDSKRKAKSFEGNNNYDTPELRTFPALSTRFIRIYPERATHGGLGLRMELLGCRSGSKENLYFQG
# B2: Trap X: NRP1 trap a1a2-b1-c, aa about 22-430 and 584-856, Y297A; SEQ ID NOs 89/90 (protein)
# chain: FRNDKCGDTIKIESPGYLTSPGYPHSYHPSEKCEWLIQAPDPYQRIMINFNPHFDLEDRDCKYDYVEVFDGENENGHFRGKFCGKIAPPPVVSSGPFLFIKFVSDYETHGAGFSIRYELFKRGPECSQNYTTPSGVIKSPGFPEKYPNSLECTYIVFAPKMSEIILEFESFDLEPDSNPPGGMFCRYDRLEIWDGFPDVGPHIGRYCGQKTPGRIRSSSGILSMVFYTDSAIAKEGFSANYSVLQSSVSEDFKCMEALGMESGEIHSDQITASSQASTNWSAERSRLNYPENGWTPGEDSYREWIQVDLGLLRFVTAVGTQGAISKETKKKYYVKTYKIDVSSNGEDWITIKEGNKPVLFQGNTNPTDVVVAVFPKPLITRFVRIKPATWETGISMRFEVYGCKITDYPEVEAPTAGPTTPNGNLVDECDDDQANCHSGTGDDFQLTGGTTVLATEKPTVIDSTIQSEFPTYGFNCEFGWGSHKTFCHWEHDNHVQLKWSVLTSKTGPIQDHTGDGNFIYSQADENQKGKVARLVSPVVYSQNSAHCMTFWYHMSGSHVGTLRVKLRYQKPEEYDQLVWMAIGHQGDHWKEGRVLLHKSLKLYQVIFEGEIGKGNLGGIAVDDISINNHISQEDCAKPADLDKKNPEIKIDETGSTPGYEGEGEGDKNISRKPGNVLKTLDPRSGSKENLYFQG
# B3: Trap R: NRP1 trap a1a2-b1b2-c, aa about 22-856, Y297A; SEQ ID NOs 69/70 (protein)
# chain: FRNDKCGDTIKIESPGYLTSPGYPHSYHPSEKCEWLIQAPDPYQRIMINFNPHFDLEDRDCKYDYVEVFDGENENGHFRGKFCGKIAPPPVVSSGPFLFIKFVSDYETHGAGFSIRYELFKRGPECSQNYTTPSGVIKSPGFPEKYPNSLECTYIVFAPKMSEIILEFESFDLEPDSNPPGGMFCRYDRLEIWDGFPDVGPHIGRYCGQKTPGRIRSSSGILSMVFYTDSAIAKEGFSANYSVLQSSVSEDFKCMEALGMESGEIHSDQITASSQASTNWSAERSRLNYPENGWTPGEDSYREWIQVDLGLLRFVTAVGTQGAISKETKKKYYVKTYKIDVSSNGEDWITIKEGNKPVLFQGNTNPTDVVVAVFPKPLITRFVRIKPATWETGISMRFEVYGCKITDYPCSGMLGMVSGLISDSQITSSNQGDRNWMPENIRLVTSRSGWALPPAPHSYINEWLQIDLGEEKIVRGIIIQGGKHRENKVFMRKFKIGYSNNGSDWKMIMDDSKRKAKSFEGNNNYDTPELRTFPALSTRFIRIYPERATHGGLGLRMELLGCEVEAPTAGPTTPNGNLVDECDDDQANCHSGTGDDFQLTGGTTVLATEKPTVIDSTIQSEFPTYGFNCEFGWGSHKTFCHWEHDNHVQLKWSVLTSKTGPIQDHTGDGNFIYSQADENQKGKVARLVSPVVYSQNSAHCMTFWYHMSGSHVGTLRVKLRYQKPEEYDQLVWMAIGHQGDHWKEGRVLLHKSLKLYQVIFEGEIGKGNLGGIAVDDISINNHISQEDCAKPADLDKKNPEIKIDETGSTPGYEGEGEGDKNISRKPGNVLKTLDPRSGSKENLYFQG
# B4: Trap AG: NRP1 trap a1a2b2, aa about 22-280, 431-583 and 631-700; SEQ ID NOs 57/58 (protein)
# chain: MERGLPLLCAVLALVLAPAGAFRNDKCGDTIKIESPGYLTSPGYPHSYHPSEKCEWLIQAPDPYQRIMINFNPHFDLEDRDCKYDYVEVFDGENENGHFRGKFCGKIAPPPVVSSGPFLFIKFVSDYETHGAGFSIRYELFKRGPECSQNYTTPSGVIKSPGFPEKYPNSLECTYIVFAPKMSEIILEFESFDLEPDSNPPGGMFCRYDRLEIWDGFPDVGPHIGRYCGQKTPGRIRSSSGILSMVFYTDSAIAKEGFSANYSVLQSSVSEDFKKITDYPCSGMLGMVSGLISDSQITSSNQGDRNWMPENIRLVTSRSGWALPPAPHSYINEWLQIDLGEEKIVRGIIIQGGKHRENKVFMRKFKIGYSNNGSDWKMIMDDSKRKAKSFEGNNNYDTPELRTFPALSTRFIRIYPERATHGGLGLRMELLGCRSGSKENLYFQG
# B5: Trap Y: NRP1 trap a1a2-c, aa about 22-274 and 584-856; SEQ ID NOs 91/92 (protein)
# chain: FRNDKCGDTIKIESPGYLTSPGYPHSYHPSEKCEWLIQAPDPYQRIMINFNPHFDLEDRDCKYDYVEVFDGENENGHFRGKFCGKIAPPPVVSSGPFLFIKFVSDYETHGAGFSIRYELFKRGPECSQNYTTPSGVIKSPGFPEKYPNSLECTYIVFAPKMSEIILEFESFDLEPDSNPPGGMFCRYDRLEIWDGFPDVGPHIGRYCGQKTPGRIRSSSGILSMVFYTDSAIAKEGFSANYSVLQSSVSEDFKEVEAPTAGPTTPNGNLVDECDDDQANCHSGTGDDFQLTGGTTVLATEKPTVIDSTIQSEFPTYGFNCEFGWGSHKTFCHWEHDNHVQLKWSVLTSKTGPIQDHTGDGNFIYSQADENQKGKVARLVSPVVYSQNSAHCMTFWYHMSGSHVGTLRVKLRYQKPEEYDQLVWMAIGHQGDHWKEGRVLLHKSLKLYQVIFEGEIGKGNLGGIAVDDISINNHISQEDCAKPADLDKKNPEIKIDETGSTPGYEGEGEGDKNISRKPGNVLKTLDPRSGSKENLYFQG
# B6: Trap P: NRP1 trap a1a2-b1, aa about 22-424, Y297A; SEQ ID NOs 83/84 (protein)
# chain: FRNDKCGDTIKIESPGYLTSPGYPHSYHPSEKCEWLIQAPDPYQRIMINFNPHFDLEDRDCKYDYVEVFDGENENGHFRGKFCGKIAPPPVVSSGPFLFIKFVSDYETHGAGFSIRYELFKRGPECSQNYTTPSGVIKSPGFPEKYPNSLECTYIVFAPKMSEIILEFESFDLEPDSNPPGGMFCRYDRLEIWDGFPDVGPHIGRYCGQKTPGRIRSSSGILSMVFYTDSAIAKEGFSANYSVLQSSVSEDFKCMEALGMESGEIHSDQITASSQASTNWSAERSRLNYPENGWTPGEDSYREWIQVDLGLLRFVTAVGTQGAISKETKKKYYVKTYKIDVSSNGEDWITIKEGNKPVLFQGNTNPTDVVVAVFPKPLITRFVRIKPATWETGISMRFEVYGCRSGSKENLYFQG
# B7: Trap AF: NRP1 trap a1a2b2c, aa 1-280 and 431-856 incl. SP; SEQ ID NOs 55/56 (protein)
# chain: MERGLPLLCAVLALVLAPAGAFRNDKCGDTIKIESPGYLTSPGYPHSYHPSEKCEWLIQAPDPYQRIMINFNPHFDLEDRDCKYDYVEVFDGENENGHFRGKFCGKIAPPPVVSSGPFLFIKFVSDYETHGAGFSIRYELFKRGPECSQNYTTPSGVIKSPGFPEKYPNSLECTYIVFAPKMSEIILEFESFDLEPDSNPPGGMFCRYDRLEIWDGFPDVGPHIGRYCGQKTPGRIRSSSGILSMVFYTDSAIAKEGFSANYSVLQSSVSEDFKKITDYPCSGMLGMVSGLISDSQITSSNQGDRNWMPENIRLVTSRSGWALPPAPHSYINEWLQIDLGEEKIVRGIIIQGGKHRENKVFMRKFKIGYSNNGSDWKMIMDDSKRKAKSFEGNNNYDTPELRTFPALSTRFIRIYPERATHGGLGLRMELLGCEVEAPTAGPTTPNGNLVDECDDDQANCHSGTGDDFQLTGGTTVLATEKPTVIDSTIQSEFPTYGFNCEFGWGSHKTFCHWEHDNHVQLKWSVLTSKTGPIQDHTGDGNFIYSQADENQKGKVARLVSPVVYSQNSAHCMTFWYHMSGSHVGTLRVKLRYQKPEEYDQLVWMAIGHQGDHWKEGRVLLHKSLKLYQVIFEGEIGKGNLGGIAVDDISINNHISQEDCAKPADLDKKNPEIKIDETGSTPGYEGEGEGDKNISRKPGNVLKTLDPRSGSKENLYFQG
# Test system: SEMA3A-FC
# Test: Sema 3A binding assay on plate-coated purified traps (saturation curves, KD)
# Details: Table 2, Yes/No
# Procedure: Sema 3A and AP-VEGF165 binding assays. Saturation curves for the determinations of KD of binding to SEMA 3A or VEGF165 were obtained as follow. Wells of high protein binding 96 well plates (Maxisorp, Nunc) were coated with purified traps diluted in PBS and blocked afterward with binding buffer (PBS containing 2% casein and 0.05% Tween 20). The SEMA3A-FC (R&D systems) or AP-VEGF165 ligands were diluted in binding buffer over an extensive range of concentrations and added to wells. Following an overnight incubation, wells were washed with PBS containing 0.05% tween. Bound SEMA3a-FC was detected using an HRP-linked anti-Human IgG (Biorad) and ECL substrate (Pierce). Alternatively, bound AP-VEGF165 was detected using CPD star substrate (Roche). The Chemiluminescent signal was acquired on a TECAN reader. Dissociation constant (KD) were determined by non-linear curve fitting using the Graph Pad prism software.
# The relative affinity of traps of the present invention to SEMA3A and VEGF has been assessed. Traps were prepared as described in Example 8.
row,Binding to SEMA3A,Molecule
1,Yes,Iso-b: Secreted NRP1 isoform-b/S12; 644 amino acids; a1a2-b1b2-c (in part); SEQ ID NO: 44
2,Yes,Iso-c: Secreted NRP1 isoform-c/Siv; 609 amino acids; a1a2-b1b2-c (in part); SEQ ID NO: 45
3,Yes,Iso-d: Secreted NRP1 isoform S11; 704 amino acids; a1a2-b1b2-c (in part); SEQ ID NO: 46
4,Yes,"Trap O: NRP1 trap a1a2-b1b2, aa about 22-583; SEQ ID NOs 77/78"
5,No,B1
6,No,B2
7,Yes,B3
8,Yes,B4
9,No,B5
10,No,B6
11,No,B7

# Same assay, conditions: traps coated on plate, overnight incubation
row,SEMA 3A-FC binding (dissociation constant),Molecule
1,No binding,B1
2,No binding,B2
3,No binding,B6
4,No binding,B7

# Same assay, conditions: traps coated on plate, overnight incubation; read-out: SEMA 3A-FC binding (dissociation constant)
row,Kd [nM],Molecule
1,6.15,B3
2,> 750,B5
